Measured values taken from patent publication US20160031999A1 (CSL, published 2016).
Where “and” joins values, the source holds several entries; their conditions need not be identical. Identical values can stand only once.

T1: polypeptide of SEQ ID NO: 85 (amino acids 23 to 318 of human IL-11Rα, serine at position 248, 8×HIS tag) (human, UniProt Q14626 23-318)
T1 construct: also called WT D1/2; truncated hIL-11R
T1 sequence: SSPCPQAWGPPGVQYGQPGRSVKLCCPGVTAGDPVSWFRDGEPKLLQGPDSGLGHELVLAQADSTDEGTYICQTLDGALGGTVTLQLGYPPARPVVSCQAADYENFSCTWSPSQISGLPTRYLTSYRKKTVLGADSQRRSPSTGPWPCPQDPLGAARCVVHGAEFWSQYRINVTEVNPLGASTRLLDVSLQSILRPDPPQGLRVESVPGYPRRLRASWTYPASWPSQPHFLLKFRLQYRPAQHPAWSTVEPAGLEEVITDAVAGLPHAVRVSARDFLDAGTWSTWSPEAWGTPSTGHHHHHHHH

T2: polypeptide of SEQ ID NO: 88 (human IL-11Rα 23-318 and mouse IL-11Rα 319-367, 8×HIS tag) (human and mouse (chimera))
T2 chain: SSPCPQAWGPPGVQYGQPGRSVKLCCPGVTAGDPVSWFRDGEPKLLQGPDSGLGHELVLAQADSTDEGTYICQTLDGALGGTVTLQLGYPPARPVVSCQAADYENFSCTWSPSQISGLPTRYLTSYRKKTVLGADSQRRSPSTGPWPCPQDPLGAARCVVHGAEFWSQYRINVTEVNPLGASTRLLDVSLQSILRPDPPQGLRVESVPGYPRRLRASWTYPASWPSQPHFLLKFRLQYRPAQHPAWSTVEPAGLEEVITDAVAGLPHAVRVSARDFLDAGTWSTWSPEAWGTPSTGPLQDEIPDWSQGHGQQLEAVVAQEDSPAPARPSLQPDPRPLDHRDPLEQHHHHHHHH

T3: polypeptide of SEQ ID NO: 87 (human IL-11Rα 23-215 and mouse IL-11Rα 216-367, 8×HIS tag) (human and mouse (chimera))
T3 chain: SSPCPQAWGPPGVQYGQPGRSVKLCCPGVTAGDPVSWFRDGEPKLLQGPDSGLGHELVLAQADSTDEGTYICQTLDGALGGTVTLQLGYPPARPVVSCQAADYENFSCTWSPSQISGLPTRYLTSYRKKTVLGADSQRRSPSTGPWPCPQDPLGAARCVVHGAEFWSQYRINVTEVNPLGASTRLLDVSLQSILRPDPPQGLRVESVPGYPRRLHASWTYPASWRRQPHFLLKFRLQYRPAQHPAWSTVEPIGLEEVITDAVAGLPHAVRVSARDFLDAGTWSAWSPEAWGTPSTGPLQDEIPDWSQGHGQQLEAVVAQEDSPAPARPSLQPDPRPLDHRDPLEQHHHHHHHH

T4: mouse IL-11Rα on transfected cells (mouse, UniProt P70225 24-424)
T4 construct: also called mIL-11Rα
T4 sequence: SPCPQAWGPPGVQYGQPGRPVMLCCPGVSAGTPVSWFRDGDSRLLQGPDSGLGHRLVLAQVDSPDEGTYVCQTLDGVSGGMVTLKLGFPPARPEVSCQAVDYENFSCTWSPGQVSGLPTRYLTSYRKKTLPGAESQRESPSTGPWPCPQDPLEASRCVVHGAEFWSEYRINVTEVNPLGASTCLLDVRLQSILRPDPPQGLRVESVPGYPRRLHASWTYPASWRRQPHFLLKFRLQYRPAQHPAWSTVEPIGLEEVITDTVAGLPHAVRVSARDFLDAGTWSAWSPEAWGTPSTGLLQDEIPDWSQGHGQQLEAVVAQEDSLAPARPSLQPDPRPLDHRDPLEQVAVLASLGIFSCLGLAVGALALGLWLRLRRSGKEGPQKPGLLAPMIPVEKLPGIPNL

T5: V117E mutant of soluble human IL-11Rα (SEQ ID NO: 95) (human, UniProt Q14626 23-318)
T5 construct: also called V95E
T5 sequence: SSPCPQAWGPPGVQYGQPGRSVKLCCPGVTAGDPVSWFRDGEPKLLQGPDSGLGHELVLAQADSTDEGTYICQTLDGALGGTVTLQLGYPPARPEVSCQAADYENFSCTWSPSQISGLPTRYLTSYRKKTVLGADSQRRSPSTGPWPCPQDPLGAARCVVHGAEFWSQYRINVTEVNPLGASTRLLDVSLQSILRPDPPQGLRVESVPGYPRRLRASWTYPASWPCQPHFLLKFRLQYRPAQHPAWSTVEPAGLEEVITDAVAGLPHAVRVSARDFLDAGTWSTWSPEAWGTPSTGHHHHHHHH


Assays:
[1] = biological target: T1, polypeptide of SEQ ID NO: 85 (amino …); test: Biacore, antibody captured on anti-human IgG Fc, receptor injected; N = 2, both values shown
Description: (§1) Various point mutants of soluble forms of IL-11R were produced in which amino acids from mIL-11 were introduced into a soluble form of hIL-11 (SEQ ID NO: 85) (see Table 5 for positions of mutations relative to SEQ ID NO: 1 and for reference to the SEQ ID NO: of each polypeptide) and the binding of antibodies to those polypeptides or to polypeptides of SEQ ID NO: 3 or SEQ ID NO: 85 was determined using Biacore analysis or FACS.
(§2) Anti human IgG Fc specific antibody was chemically immobilized on a CM5 chip to ˜9000 RU. Antibodies were captured at about 0.3-1 μg/ml for 120 seconds on 2 spots in each flow cell. Adjacent spots consisting of only anti human IgG were used as a reference. IL-11 receptors were injected over the captured antibodies and reference spots at 40, 10, 5 and 2.5 nM in duplicate. Blank injections of buffer only were also performed in duplicate. Injection was performed for 3 minutes and dissociation monitored for a further 5 minutes.

[2] = biological target: T2, polypeptide of SEQ ID NO: 88 (human …); test: Biacore, domain-swapped receptor; strong = KD of about 10 nM or lower
Description: (§3) Various soluble forms of IL-11R comprising regions of hIL-11R and mIL-11R were produced and comprise sequences as set forth in SEQ ID NOs: 3 and 86-90 and the binding of antibodies 8E2, 8D10 and 8E4 to those polypeptides was determined using Western blotting or Biacore analysis.
(§4) For Biacore analysis, anti-human was IgG immobilized on the sensor surface at ˜10,000-12,000 RU and each antibody was captured at between 0.2 μg/ml and 0.5 μg/ml every cycle for 120 seconds. IL-11 receptors were injected over captured antibodies at varying concentrations, ranging from 1 μM down to 2.5 nM, including injections of buffer blanks. Association was monitored for 3-5 minutes, dissociation was monitored for 3-10 minutes. Approximate affinities were determined by fitting binding curves of each interaction to a 1:1 Kinetic Model.

[3] = biological target: T3, polypeptide of SEQ ID NO: 87 (human …); test: as above
Description: as §3, §4

[4] = biological target: T4, mouse IL-11Rα on transfected cells; test: binding to transfected cells
[5] = biological target: T5, V117E mutant of soluble human IL-11Rα …; test: Biacore, antibody captured on anti-human IgG Fc, receptor injected; mean ± SE, N = 4
Description: as §1, §2

Row | Kd [1] | binding result [2] | binding result [3] | binding result [4] | Kd [5] [nM] | Binder
1 | 0.57 nM and 0.69 nM | binds | binds | no binding | – | antibody 8D10 (antibody, human IgG4 S228P, kappa, V domains shown) VH: EVQLLESGGGLVQPGGSLRLSCAASGFTFSRYMMGWVRQAPGKGLEWVSSIVPSGGITIYADSVKGRFTISRDNSKNTLYLQMNSLRAEDTAVYYCARDHMGIVATDWGQGTLVTVSS VL: DIQMTQSPSSLSASVGDRVTITCQASQDITNYLNWYLHKPGKAPKLLIYDASNLQTGVPSRFSGSGSGTDFTFTITSLQPEDFGTYYCQQYDTLHPSFGPGTTVDIKR
2 | 3.2 nM and 3.7 nM | binds | binds | – | 5.54 | antibody 8E4 (antibody, human IgG4 S228P, lambda, V domains shown) VH: EVQLLESGGGLVQPGGSLRLSCAASGFTFSWYFMGWVRQAPGKGLEWVSYIYPSGGSTGYADSVKGRFTISRDNSKNTLYLQMHSLRAEDTAVYYCARDEGYCSSTSCYFDAFDIWGQGTMVTVSS VL: QSALTQPPSASGSPGQSVAISCTGTSSDVGGYNFVSWYQQHPGKAPKLLIYEVTKRPSGVPDRFSGSKAGNTASLTVSGLQAEDEADYYCSSYGGSNNAGVFGTGTKVTVLG
